Five molecules from paper doi:10.1101/2025.07.12.664526 (bioRxiv, 2025) can be followed below.

In data set [1] the target is WalR T101M fused to SmBIT or LgBIT (split luciferase) (S. aureus ATCC29213) (UniProt Q7A8E1). Description: split reporter.
Data set [2] addresses WalR, wild type, full-length, C-terminal 6xHis, phosphorylated by PknB^CYTO with ATP (S. aureus ATCC29213) (UniProt Q7A8E1). Briefly: SEC-MALS.
For data set [3], the target named is T1, WalR wild type fused to SmBIT or LgBIT (split luciferase) (S. aureus ATCC29213, UniProt Q7A8E1 1-233).
T1 sequence (looked up): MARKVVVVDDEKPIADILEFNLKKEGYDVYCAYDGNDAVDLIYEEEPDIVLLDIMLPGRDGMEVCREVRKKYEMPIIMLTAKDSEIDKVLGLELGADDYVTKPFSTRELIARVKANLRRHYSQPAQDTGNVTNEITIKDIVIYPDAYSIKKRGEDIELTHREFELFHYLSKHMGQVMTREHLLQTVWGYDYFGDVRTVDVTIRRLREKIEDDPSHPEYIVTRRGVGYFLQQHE
Briefly: split reporter.

The data set “split reporter” concerns the molecule itself. Description: split reporter.

Turning to “WalR T101M fused to SmBIT or LgBIT (split luciferase) (from UniProt Q7A8E1 1-233) (natural protein)”, in data set [1], the peak luciferase signal in the wild type background stood at 4340 RLU, the peak luciferase signal in the ΔpknB background came to 3650 RLU and the percent decrease of peak luciferase signal area against wild type WalR/WalR is 65.2%.

With “WalR, wild type, full-length, C-terminal 6xHis, phosphorylated by PknB^CYTO with ATP (from UniProt Q7A8E1 1-233) (natural protein)”, the stoichiometry N in data set [2] amounted to 2.

B1: WalR T101M fused to SmBIT or LgBIT (split luciferase) (natural protein, S. aureus ATCC29213, UniProt Q7A8E1 1-233, looked up)
chain: MARKVVVVDDEKPIADILEFNLKKEGYDVYCAYDGNDAVDLIYEEEPDIVLLDIMLPGRDGMEVCREVRKKYEMPIIMLTAKDSEIDKVLGLELGADDYVMKPFSTRELIARVKANLRRHYSQPAQDTGNVTNEITIKDIVIYPDAYSIKKRGEDIELTHREFELFHYLSKHMGQVMTREHLLQTVWGYDYFGDVRTVDVTIRRLREKIEDDPSHPEYIVTRRGVGYFLQQHE
For the molecule B1, the “percent decrease of peak area against wild type WalR/WalR” value in data set [3] amounted to 56.5%.

B2: WalR T101A fused to SmBIT or LgBIT (split luciferase) (natural protein, S. aureus ATCC29213, UniProt Q7A8E1 1-233, looked up)
chain: MARKVVVVDDEKPIADILEFNLKKEGYDVYCAYDGNDAVDLIYEEEPDIVLLDIMLPGRDGMEVCREVRKKYEMPIIMLTAKDSEIDKVLGLELGADDYVAKPFSTRELIARVKANLRRHYSQPAQDTGNVTNEITIKDIVIYPDAYSIKKRGEDIELTHREFELFHYLSKHMGQVMTREHLLQTVWGYDYFGDVRTVDVTIRRLREKIEDDPSHPEYIVTRRGVGYFLQQHE
In the case of B2, the “percent decrease of peak area against wild type WalR/WalR” value in the data set “split reporter” came to 56.7%.

B3: WalR T101S fused to SmBIT or LgBIT (split luciferase) (natural protein, S. aureus ATCC29213, UniProt Q7A8E1 1-233, looked up)
chain: MARKVVVVDDEKPIADILEFNLKKEGYDVYCAYDGNDAVDLIYEEEPDIVLLDIMLPGRDGMEVCREVRKKYEMPIIMLTAKDSEIDKVLGLELGADDYVSKPFSTRELIARVKANLRRHYSQPAQDTGNVTNEITIKDIVIYPDAYSIKKRGEDIELTHREFELFHYLSKHMGQVMTREHLLQTVWGYDYFGDVRTVDVTIRRLREKIEDDPSHPEYIVTRRGVGYFLQQHE
On to B3, for which, in the data set “split reporter”, the “percent decrease of peak area against wild type WalR/WalR” value came to 52.4%.

In general, stoichiometry N refers to a count of units in the complex or per binding partner.
